Laboratory results taken from article PMC11405125 (Briefings in Bioinformatics, 2024).
Substitutions are numbered along the chain they refer to. Names may count otherwise.

B1: HuJ3 E44R (VHH)
VHH: EVQLVESGGGLVQPGGSLRLSCAASGSIFNQYAMAWFRQAPGKRREFVAGMGAVPHYGEFVKGRFTISRDNSKNTVYLQMNSLRAEDTAVYYCARSKSTYISYNSNGYDYWGQGTLVTVS
B2: HuJ3 S102R (VHH)
VHH: B1 VHH with R44E, S102R
B3: HuJ3 V54E (VHH)
VHH: B1 VHH with R44E, V54E

The binders below were run against HIV-1 Bal gp140 (Human immunodeficiency virus 1, isolate …, UniProt Q2MKA8, strain) (assay: ELISA).
B1 gave an EC50 of 1.7 nM.
B2 showed an EC50 of 10.4 nM.
With B3 the EC50 was 2.31 nM.
